Measurements as given in patent publication US12605469B2, “Tumor specific antibody conjugates and uses therefor” (The University of North Carolina at Charlotte, priority 2019, dated 2026).

Experiments:
[1] = system: human breast cancer cell lines; assay: flow cytometry of breast cancer cell lines with TAB-004 conjugated to Cy7; format: cell-based; conditions: Cy7 conjugate
Method: FIG. 13 is a series of plots of flow cytometric analyses of TNBC cell lines stained with a Cy7-conjugated TAB-004 monoclonal antibody (1 μg/sample). Compared to isotype control (solid trace in each panel; red lines in color photo), all cell lines expressed high to moderate levels of tMUC. MDA-MB-231 is mesenchymal in phenotype and loses MUC1 in vitro while Hs578T is a mesenchymal stem-like carcinosarcoma that has low expression of tMUC (depicted with dashed lines in each panel).
A 45-panel human breast cancer cell lines were tested for tMUC expression with TAB-004 conjugated to Cy7 and flow cytometry. […] In particular, apart from those with a mesenchymal phenotype, all cell lines expressed high levels of tMUC.

[2] = target: tumor-specific form of MUC1 (tMUC) (Homo sapiens, UniProt P15941); conditions: cited from earlier work
CTCs = assay: […] measurement of MUC1-expressing CTCs; format: cell-based, human; conditions: 7.5 ml blood spiked with PANC1 cells
Method: Both breast and pancreatic primary and metastatatic tumors express high levels of tumor-associated MUC1 recognized by the TAB-004 antibody of the presently disclosed subject matter. Therefore, CTCs in these patients should be recognized by the TAB-004 antibody. In preliminary experiments, levels of MUC1 were assessed using the TAB-004 antibody. First, the ability to use the Veridex […]® system to measure MUC1-expressing CTCs using 7.5 ml blood samples (analogous to human samples) spiked with PANC1 cells, which are a human pancreatic cancer cell line was tested. Approximately 90% of the CTCs (EpCAM+ cells) expressed MUC1. […] Therefore, using the TAB-004 antibody appears to accurately detect micrometastases in pancreatic and breast cancer patients.

KCM tumor cells = assay: NK cell specific lysis of tumor cells; format: cell-based, mouse; conditions: various E:T ratios
Text: FIGS. 4A and 4B are graphs showing that an exemplary antibody of the presently disclosed subject matter (TAB-004) enhanced the cytotoxicity of Natural Killer (NK) cells to kill target tumor cells.
(§1) The TAB-004 antibody alone or conjugated to CpG ODN bound to a tumor cell line (referred to herein as the “KCM” cell line; see FIG. 3) generated from the triple transgenic PDA.MUC1.Tg mice.

KCM pancreatic cell line = assay: binding to KCM pancreatic cell line; format: cell-based, mouse
Text: FIG. 3 is a schematic (upper left panel) showing an approach for creating a triple transgenic mouse line that expresses the Cre recombinase throughout the pancreas, a mutated K-ras oncogene polypeptide, and a human MUC1 polypeptide. This mouse develops pancreatic adenocarcinoma, cells of which were used to generate the primary tumor cell line KCM (lower panel). The KCM cell line was used to test the binding of an exemplary antibody of the presently disclosed subject matter (denoted in the Figure as “TAB” and in the instant disclosure as “TAB-004”) either alone or conjugated to CpG oligodeoxynucleotides (CpG ODN).
as §1

mutated K-ras = target: T1, mutated K-ras (Mus musculus, UniProt P32883, G12D); assay: staining of tumor tissues expressing the K-ras mutation but not human MUC1; format: binding
T1 construct: from tissue; host or cells: tumour tissue expressing the K-ras mutation but not human MUC1

shed MUC1 = target: T2, shed MUC1 (Homo sapiens, UniProt P15941); assay: enzyme immunoassay (EIA) for shed MUC1 in plasma
T2 construct: from tissue; host or cells: human plasma, diluted 1:2 and 1:10
Method: To that end, the ability of TAB-004 to detect levels of shed MUC1 in the plasma of patients was compared to the performances of these antibodies in plasma samples. An enzyme immunoassay (EIA) has been optimized using the TAB-004 antibody to capture and detect levels of shed MUC1 present in circulation. Briefly, a 96-well ELISA plate was coated with 100 μl of TAB-004 antibody at 50 μg/mL in PBS and incubated overnight at 4° C. Following incubation, excess TAB-004 capture antibody was removed from the plate. The plate was blocked with 200 μl of 1% dry milk in PBS to avoid non-specific binding and incubated for 1 hour at 4° C. The plates were washed extensively (3 times) with 250 μl PBS containing 0.05% (v/v) TWEEN®-20 using an ELISA plate washer. A MUC1 standard using a 25-mer polypeptide preparation from MUC1 TR was prepared ranging from 0-2000 U/ml. The test plasma was diluted 1:2, and 1:10 in 0.1% milk in PBS, and 100 μl was added to the appropriate wells in triplicate, and the plates were incubated for 2 hours at 37° C.
Plates were then washed and 100 μl of a polyclonal rabbit anti-MUC1 antibody (Genway) were added at 1:300,000 dilution in 0.1% milk in PBS to each well, and the plate was incubated for 1 hour at 37° C. The polyclonal antibody was washed from the wells and horse radish peroxidase-labeled goat anti-rabbit IgG was added at a 1:1,000 dilution in 0.1% milk in PBS and incubated at 37° C. for 1 hour. After washing the plates, 100 μL of a solution consisting of peroxidase substrate (TMB) was added to the wells, and the plates incubated at room temperature for 30 minutes in the dark. The reaction was stopped by the addition of 25 μl of 4.0 N sulfuric acid, and the optical density read at a wavelength of 450 nm using a SPECTRA-MAX 250 spectrophotometer. Standard curves were generated with regression analyses to determine concentrations of the unknown samples.
Arbitrary units (U)/ml were chosen based on an initial reference standard of MUC1. A linear range was determined to be 50-800 units/ml of MUC1 antigen. […]

B1: TAB-004: mAb of the IgG isotype produced by hybridoma ATCC PTA-11550; binds tumor-specific epitope of human MUC1 (antibody, V domains shown)
VH: EVQLQQSGGERATPGASVKMSCKTSGYTFTNYWMHWVKQRPGQGLEWIGYINPSSGYTQYNQKFKDKATLTADKSSSTAYIQLSSLTSEDSAVYYCSTYYGDYLFPYWGQGTLVTVSA
VL: DVLMTQTPLSLPVSLGDQASISCRSSQDIVYGNGNTYLEWYLQKPGQSPKLLIYKVSNRFSGVPDRFSGSGSGTDFTLKISRVEAEDLGVYYCFQGSHVPYTFGGGTKLEIKR
- staining of breast cancer cell line subtypes ([1]; 45-panel): stained strongly
- staining of MDA-MB-231 cell line [1]: stained weakly
- binding affinity [2]: 3 ng/mL
- binding to unrelated antigens [2]: does not bind unrelated antigens
- Kd ([2]; read-out: binding affinity): 0.02 nM
- CTCs (EpCAM+ cells) expressing MUC1 (CTCs): Approximately 90%
- specific lysis of tumor cells by NK cells (KCM tumor cells): enhanced specific lysis of KCM tumor cells
- binding to KCM cell line (KCM pancreatic cell line): bound to the KCM pancreatic cell line with equal affinity
- cross reactivity with mutated K-ras (mutated K-ras): cross reacted with mutated K-ras
- false negatives / positivity of cancer patient plasma (shed MUC1; 36 breast cancer plasma samples for CA15-3): All cancer patient plasma was positive
- stage 2 and stage 3 pancreatic cancer patients above the normal range (shed MUC1; n=5 per stage): all stage 2 and stage 3 patients
- false positive results in normal patients (shed MUC1; n=12 normal, cutoff <40 U/ml TAB-004, <31 U/ml CA15-3): no false positives
